Source: patent US10898548B2, “Modulators of protein tyrosine phosphatase and uses thereof” (LEUVAS THERAPEUTICS, priority 2015, dated 2021)
Marks after values point to notes of the source that are not given here.

Tests used:
PTPRG = assay: in vitro phosphatase activity (pNPP) on membranes from human primary monocytes; format: biochemical; conditions: monocyte membranes, DMSO 7.25
Protocol: We first tested the biochemical activity of the fusion peptide by performing in vitro assays of phosphatase activity on purified membranes isolated from human primary monocytes compared to membranes isolated from human primary polymorphonuclear cells (PMNs). Human primary monocytes and polymorphonuclear (PMNs) cells were isolated from whole blood of healthy donors. Purity of monocyte preparation was evaluated by flow cytometry after staining with fluorescein isothiocyanate (FITC)-conjugated anti-CD14 antibody and was more than 95%. Isolated cells were kept at 37° C. in standard adhesion buffer (PBS, 1 mM CaCl2, 1 mM MgCl2, 10% FBS, pH 7.2) and used within 1 h.
The phosphatase activity in membrane fractions isolated from human monocytes and PMNs was assessed. […] Cells were then sonicated twice (6 sec, 15% W) and centrifuged at 2000 rpm for 10 minutes. The supernatants were collected and centrifuged at 28000 rpm for 60 minutes. After centrifugation, the supernatants were discarded, and the membrane pellets were dissolved in 20 mM tris pH 7.4. Equal amount of membrane fractions were added to pNPP buffer containing 20 mM tris, 10 mM DTT and 2 mM pNPP. Following, DMSO and peptides were added. After 30 minutes of incubation, levels of de-phosphorylation, in presence or absence of orthovanadate, were measured at 405 nm by a plate reader. Values are absorbance at 405 nn shown as percent fold increase over the blank; mean values of three experiments are shown. *p<0.001 vs vehicle (DMSO).

U251 GBM cells [1] = assay: MTT survival assay, U251 GBM cells; format: cell-based
Protocol: (§1) Briefly, U251 GBM cells, normal primary cortical murine neurons and a mixed culture of murine microglia and astrocytes were treated for 24, 48 and 72 hours with no treatment (control), delivery peptide (P1 or TAT) or increasing concentrations of P1-WD or TAT-ICD. Cell viability and survival was measured using the MTT assay, a colorimetric assay for assessing cell metabolic activity set up under conditions where the absorption reflects the number of viable cells present (Table 21 and 22) and expressed as relative absorption at 570 nm. Early apoptosis was measured using VYBRANT DyeCycle Violet stain (Molecular Probes), a DNA-selective, cell membrane-permeant dye that can distinguish the compacted state of the nuclear chromatin in apoptotic cells as determined by flow cytometry and presented as the percent of cells that are apoptotic (Table 23 and 24). The actual number of cells following treatment with TAT-ICD or TAT alone (Table 25) was determined using flow cytometry compared to an input of 5,000 cells at time zero. To confirm apoptosis the TUNEL labeling assay, which detects DNA strand breaks in apoptotic cells by fluorescence microscopy, was also used to examine U251 cells treated with the PTPRG WD. Briefly, the assay used an optimized terminal transferase ([…]) to label 3′OH ends in genomic DNA with TMR-dUTP, thus allowing the measurement and quantification of cell death by apoptosis. U251 cells were pretreated for 1, 3 and 6 hours with 50 μM P1-WD. Then cells were fixed and permeabilized, incubated with TUNEL reaction mixture for 1 h at RT, and then stained with DAPI (for nuclei detection) and with Alexa670-Phalloidin (to detect actin in cell membranes). After the staining steps, cells were visualized with a confocal microscope.

U251 GBM cells [2] = assay: cell number by flow cytometry, U251 GBM cells; format: cell-based; conditions: input 5000
Protocol: as §1, with “Cell” for “Briefly, U251 GBM cells, normal primary cortical murine neurons and a mixed culture of murine microglia and astrocytes were treated for 24, 48 and 72 hours with no treatment (control), delivery peptide (P1 or TAT) or increasing concentrations of P1-WD or TAT-ICD. Cell”

[3] = tested on: normal primary cortical murine neurons; assay: MTT assay, normal primary cortical neurons; format: cell-based, mouse
Protocol: as §1
In striking contrast, treatment of normal primary cortical neurons isolated from mouse pups treated with TAT alone or TAT-ICD for 24-72 hours (Table 26) are mean and sd of absorption using the MTT assay as described above.

bEnd3 endothelial cells = assay: MTT assay, bEnd3 endothelial cells; format: cell-based
COS7 cells = assay: MTT assay, COS7 cells; format: cell-based
U87 GBM cells = assay: VYBRANT apoptosis, U87 GBM cells; format: cell-based; conditions: 0.5 μM
[4] = 0.25 uM, 24 hours, Control 1116
[5] = 0.25 uM, 48 hours, Control 1022

P1-WD: fusion Trojan peptide SEQ ID 3: Penetratin, glycine, PTPRG wedge domain aa 831-856; RQIKIWFQNRRMKWKKGKQFVKHIGELYSNNQHGFSEDFEEVQ (listed as Homo sapiens)
phosphatase activity, absorbance at 405 nm as percent fold increase over the blank (PTPRG; P1-WD 50 micromolar): 34.62* %
phosphatase activity, absorbance at 405 nm as percent fold increase over the blank (PTPRG; P1-WD 100 micromolar): 86.70* %
phosphatase activity, absorbance at 405 nm as percent fold increase over the blank (PTPRG; P1-WD 200 micromolar): 109.00* %
MTT relative absorption at 570 nM (U251 GBM cells [1]; P1-WD 10 uM, 24 hours, control 821): 656
MTT relative absorption at 570 nM (U251 GBM cells [1]; P1-WD 10 uM, 48 hours, control 1943): 1400
MTT relative absorption at 570 nM (U251 GBM cells [1]; P1-WD 10 uM, 72 hours, control 2556): 1593
MTT relative absorption at 570 nM (U251 GBM cells [1]; P1-WD 25 uM, 24 hours, control 821): 469
MTT relative absorption at 570 nM (U251 GBM cells [1]; P1-WD 25 uM, 48 hours, control 1943): 820
MTT relative absorption at 570 nM (U251 GBM cells [1]; P1-WD 25 uM, 72 hours, control 2556): 1281
MTT relative absorption at 570 nM (U251 GBM cells [1]; P1 or P1-WD 50 uM, 24 hours, control 821): 411
MTT relative absorption at 570 nM (U251 GBM cells [1]; P1 or P1-WD 50 uM, 48 hours, control 1943): 733
MTT relative absorption at 570 nM (U251 GBM cells [1]; P1 or P1-WD 50 uM, 72 hours, control 2556): 1060

TAT-ICD: fusion recombinant protein SEQ ID 5: PTPRG intracellular domain aa 797-1445 fused to 13 aa TAT sequence
MTT relative absorption at 570 nM (U251 GBM cells [1]; TAT-ICD 0.5 uM, 24 hrs, Control 821): 568
MTT relative absorption at 570 nM (U251 GBM cells [1]; TAT-ICD 0.5 uM, 48 hrs, Control 1943): 969
MTT relative absorption at 570 nM (U251 GBM cells [1]; TAT-ICD 0.5 uM, 72 hrs, Control 2556): 1630
MTT relative absorption at 570 nM (U251 GBM cells [1]; TAT-ICD 1.0 uM, 24 hrs, Control 821): 353
MTT relative absorption at 570 nM (U251 GBM cells [1]; TAT-ICD 1.0 uM, 48 hrs, Control 1943): 526
MTT relative absorption at 570 nM (U251 GBM cells [1]; TAT-ICD 1.0 uM, 72 hrs, Control 2556): 830
MTT relative absorption at 570 nM (U251 GBM cells [1]; TAT-ICD 2.0 uM, 24 hrs, Control 821): 244
MTT relative absorption at 570 nM (U251 GBM cells [1]; TAT-ICD 2.0 uM, 48 hrs, Control 1943): 236
MTT relative absorption at 570 nM (U251 GBM cells [1]; TAT-ICD 2.0 uM, 72 hrs, Control 2556): 279
number of cells (U251 GBM cells [2]; TAT-ICD 0.5 μM, 6 hours, Control 5000): 4676 cells per standard volume of medium
number of cells (U251 GBM cells [2]; TAT-ICD 0.5 μM, 9 hours, Control 10000): 5400 cells per standard volume of medium
number of cells (U251 GBM cells [2]; TAT-ICD 0.5 μM, 24 hours, Control 10000): 6094 cells per standard volume of medium
number of cells (U251 GBM cells [2]; TAT-ICD 1 μM, 6 hours, Control 5000): 2688 cells per standard volume of medium
number of cells (U251 GBM cells [2]; TAT-ICD 1 μM, 9 hours, Control 10000): 5434 cells per standard volume of medium
number of cells (U251 GBM cells [2]; TAT-ICD 1 μM, 24 hours, Control 10000): 5300 cells per standard volume of medium
number of cells (U251 GBM cells [2]; TAT-ICD 2 μM, 6 hours, Control 5000): 3943 cells per standard volume of medium
number of cells (U251 GBM cells [2]; TAT-ICD 2 μM, 9 hours, Control 10000): 3016 cells per standard volume of medium
number of cells (U251 GBM cells [2]; TAT-ICD 2 μM, 24 hours, Control 10000): 4500 cells per standard volume of medium
absorbance in the MTT assay ([3]; 0.1 uM, 24 hours, Control 1116): 1115
absorbance in the MTT assay ([3]; 0.1 uM, 48 hours, Control 1022): 989
absorbance in the MTT assay ([3]; 0.1 uM, 72 hours, Control 994): 1074
absorbance in the MTT assay [3, 4]: 928
absorbance in the MTT assay [3, 5]: 923
absorbance in the MTT assay ([3]; 0.25 uM, 72 hours, Control 994): 1204
absorbance in the MTT assay ([3]; 0.5 uM, 24 hours, Control 1116): 1164
absorbance in the MTT assay ([3]; 0.5 uM, 48 hours, Control 1022): 1109
absorbance in the MTT assay ([3]; 0.5 uM, 72 hours, Control 994): 1376
mean absorbance in the MTT assay (bEnd3 endothelial cells; 0.1 uM, 24 hours, CTRL 352): 373
mean absorbance in the MTT assay (bEnd3 endothelial cells; 0.1 uM, 48 hours, CTRL 523): 513
mean absorbance in the MTT assay (bEnd3 endothelial cells; 0.25 uM, 24 hours, CTRL 352): 378
mean absorbance in the MTT assay (bEnd3 endothelial cells; 0.25 uM, 48 hours, CTRL 523): 579
mean absorbance in the MTT assay (bEnd3 endothelial cells; 0.5 uM, 24 hours, CTRL 352): 393
mean absorbance in the MTT assay (bEnd3 endothelial cells; 0.5 uM, 48 hours, CTRL 523): 545
mean absorbance in the MTT assay (COS7 cells; 0.1 μM, 24 hours, CTRL 700): 674
mean absorbance in the MTT assay (COS7 cells; 0.1 μM, 48 hours, CTRL 1267): 1391
mean absorbance in the MTT assay (COS7 cells; 0.1 μM, 72 hours, CTRL 1500): 1481
mean absorbance in the MTT assay (COS7 cells; 0.25 μM, 24 hours, CTRL 700): 684
mean absorbance in the MTT assay (COS7 cells; 0.25 μM, 48 hours, CTRL 1267): 1289
mean absorbance in the MTT assay (COS7 cells; 0.25 μM, 72 hours, CTRL 1500): 1489
mean absorbance in the MTT assay (COS7 cells; 0.5 μM, 24 hours, CTRL 700): 694
mean absorbance in the MTT assay (COS7 cells; 0.5 μM, 48 hours, CTRL 1267): 1295
mean absorbance in the MTT assay (COS7 cells; 0.5 μM, 72 hours, CTRL 1500): 1461
percent of apoptotic cells (U87 GBM cells; 1 hour, Control 10): 67%
percent of apoptotic cells (U87 GBM cells; 3 hours, Control 3): 60%
percent of apoptotic cells (U87 GBM cells; 6 hours, Control 14): 70%

TAT (GRKKRRQRRRPPQ; listed as Homo sapiens) [reference compound]
MTT relative absorption at 570 nM (U251 GBM cells [1]; TAT 50 uM, 24 hrs, Control 821): 825
MTT relative absorption at 570 nM (U251 GBM cells [1]; TAT 50 uM, 48 hrs, Control 1943): 1654
MTT relative absorption at 570 nM (U251 GBM cells [1]; TAT 50 uM, 72 hrs, Control 2556): 2068
number of cells (U251 GBM cells [2]; TAT 50 μM, 6 hours, Control 5000): 4700 cells per standard volume of medium
number of cells (U251 GBM cells [2]; TAT 50 μM, 9 hours, Control 10000): 7000 cells per standard volume of medium
number of cells (U251 GBM cells [2]; TAT 50 μM, 24 hours, Control 10000): 11385 cells per standard volume of medium
absorbance in the MTT assay ([3]; 0.1 uM, 24 hours, Control 1116): 1150
absorbance in the MTT assay ([3]; 0.1 uM, 48 hours, Control 1022): 1151
absorbance in the MTT assay ([3]; 0.1 uM, 72 hours, Control 994): 1151
absorbance in the MTT assay [3, 4]: 908
absorbance in the MTT assay [3, 5]: 955
absorbance in the MTT assay ([3]; 0.25 uM, 72 hours, Control 994): 957
absorbance in the MTT assay ([3]; 0.5 uM, 24 hours, Control 1116): 1184
absorbance in the MTT assay ([3]; 0.5 uM, 48 hours, Control 1022): 1148
absorbance in the MTT assay ([3]; 0.5 uM, 72 hours, Control 994): 1224
mean absorbance in the MTT assay (bEnd3 endothelial cells; 0.1 uM, 24 hours, CTRL 352): 354
mean absorbance in the MTT assay (bEnd3 endothelial cells; 0.1 uM, 48 hours, CTRL 523): 503
mean absorbance in the MTT assay (bEnd3 endothelial cells; 0.25 uM, 24 hours, CTRL 352): 338
mean absorbance in the MTT assay (bEnd3 endothelial cells; 0.25 uM, 48 hours, CTRL 523): 540
mean absorbance in the MTT assay (bEnd3 endothelial cells; 0.5 uM, 24 hours, CTRL 352): 328
mean absorbance in the MTT assay (bEnd3 endothelial cells; 0.5 uM, 48 hours, CTRL 523): 528
mean absorbance in the MTT assay (COS7 cells; 0.1 μM, 24 hours, CTRL 700): 649
mean absorbance in the MTT assay (COS7 cells; 0.1 μM, 48 hours, CTRL 1267): 1320
mean absorbance in the MTT assay (COS7 cells; 0.1 μM, 72 hours, CTRL 1500): 1495
mean absorbance in the MTT assay (COS7 cells; 0.25 μM, 24 hours, CTRL 700): 624
mean absorbance in the MTT assay (COS7 cells; 0.25 μM, 48 hours, CTRL 1267): 1250
mean absorbance in the MTT assay (COS7 cells; 0.25 μM, 72 hours, CTRL 1500): 1388
mean absorbance in the MTT assay (COS7 cells; 0.5 μM, 24 hours, CTRL 700): 650
mean absorbance in the MTT assay (COS7 cells; 0.5 μM, 48 hours, CTRL 1267): 1289
mean absorbance in the MTT assay (COS7 cells; 0.5 μM, 72 hours, CTRL 1500): 1341
percent of apoptotic cells (U87 GBM cells; 1 hour, Control 10): 20%
percent of apoptotic cells (U87 GBM cells; 3 hours, Control 3): 10%
percent of apoptotic cells (U87 GBM cells; 6 hours, Control 14): 20%
